Source: patent US20180194830A1 (COMMISSARIAT A L ENERGIE ATOMIQUE ET AUX ENERGIES …, published 2018)

Biological target: T1, ILT4-Fc (recombinant ILT4 receptor fused to the Fc part of a human IgG, R&D Biosystems) (human, UniProt Q8N423 22-458)
T1 construct: Bought reagent (R&D); also called ILT4/LILRB2/CD85d; not shown: Fc part of a human IgG
Experiment: dimer covalently coated on Bio-Plex beads, ILT4-Fc at 2 µg/ml, PE anti-human IgG, flow cytometry
Description: To test the binding to HLA-G receptors ILT2, ILT4, and KIR2DL4, 12 μg of dimers obtained according to example 2 were covalently coated on Bio-Plex-COOH polystyrene beads (Bio-Rad) according to the manufacturer's recommendations. Beads were then resuspended at a concentration of 2000 beads per 50 μl in 1× Luminex assay buffer (Interchim). Recombinant receptors fused to the Fc part of a human IgG (ILT2-Fc, ILT4-Fc, R&D Biosystems) were then added at 2 μg/ml. Beads and receptors were then incubated for 90 minutes in the dark on a shaker before wash twice with 200 μl of 1×PBS, 0.05% Tween. Beads were then resuspended in 50 μl of PBS Luminex assay Buffer containing 2 μl g/ml of Phycoerythrin-conjugated Goat anti Human IgG antibody (Sigma) for 30 minutes in the dark on a rotating shaker. Beads were then washed twice with 200 μl of 1×PBS, 0.05% Tween, and resuspended in 300 μl of 1×PBS.
Fluorescence, indicative of peptide recognition by the receptors was evaluated by flow cytometry performed on an Epics XL Cytometer (Beckman Coulter) using EXPO32 software (Beckman Coulter).

T1 sequence (Q8N423 22-458 limits assumed): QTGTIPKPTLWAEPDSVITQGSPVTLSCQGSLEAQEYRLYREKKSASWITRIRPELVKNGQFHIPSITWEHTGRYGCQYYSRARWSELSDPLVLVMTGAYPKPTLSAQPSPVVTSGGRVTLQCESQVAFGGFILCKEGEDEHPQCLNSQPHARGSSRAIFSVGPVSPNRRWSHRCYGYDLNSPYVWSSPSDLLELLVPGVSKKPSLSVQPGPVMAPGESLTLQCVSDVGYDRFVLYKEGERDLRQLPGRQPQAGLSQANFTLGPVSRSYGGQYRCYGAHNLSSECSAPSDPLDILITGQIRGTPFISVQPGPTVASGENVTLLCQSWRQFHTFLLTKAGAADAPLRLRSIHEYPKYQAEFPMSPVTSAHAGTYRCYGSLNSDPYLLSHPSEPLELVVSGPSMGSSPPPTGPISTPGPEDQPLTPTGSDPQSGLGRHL

binding result: binds
B1: (alpha1-alpha 3)×2 dimer of SEQ ID NO:4 (peptide)
chain: GSHSMRYFSAAVSRPGRGEPRFIAMGYVDDTQFVRFDSDSACPRMEPRAPWVEQEGPEYWEEETRNTKAHAQTDRMNLQTLRGYYNQSEADPPKTHVTHHPVFDYEATLRCWALGFYPAEIILTWQRDGEDQTQDVELVETRPAGDGTFQKWAAVVVPSGEEQRYTCHVQHEGLPEPLMLRWKQ
modifications: intrachain disulfide between cysteines 111 and 167; interchain disulfide bridge between Cysteine 42 of the two monomers
notes: Synthetic disulfide-linked homodimer; in the assay covalently coated on Bio-Plex-COOH polystyrene beads; also called (alpha 3-alpha1)×2; (alpha1-alpha 3)x2
